± gives the standard deviation of the averaged measurements.
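Also: ATP exposure 15 min at 22 °C before imaging.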

This data set relates to ATP. Nature of the data set: switch fluorescence ratio, 500 uM ATP over buffer (Cy3 cluster intensity, sum of 5 cycles each) (fold (ratio)); higher = stronger signal-on switching upon ATP binding; sequences stand for … in TCGTCGGCAGCGTCAGATGTGTATAAGAGACAGTTTTTTTTTTTTTTTTTTTTTTTTT…TC. To be noted: aptamer strand: ATP DNA aptamer (quencher-CACCTGGGGGAGTATTGCGGAGGAAGG + anchor), 100 nM annealed; ATP concentration: 500 uM. The method in brief:
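For every switch-domain sequence, the fluorescence ratio is the mean of per-cluster values, each being summed target-cycle Cy3 intensity over summed buffer-cycle Cy3 intensity. Clusters outside 100-1000 RFU were excluded. On a modified Illumina MiSeq flow-cell, the Cy3-labelled switching-strand clusters were annealed to 100 nM quencher-labelled ATP aptamer, imaged in selection buffer and then after 15 min with 500 uM ATP at 22 °C. Five such cycles were run, with NaOH stripping and re-annealing between them.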
GTGTACCCGT: the switch fluorescence ratio was found to be 0.96 ± 0.035. For CGGATGGGGA, the switch fluorescence ratio was found to be 0.993 ± 0.028. In the case of AGGATGGTAC, the switch fluorescence ratio is 1.03 ± 0.015. Consider TATATATAAA, for which the switch fluorescence ratio worked out at 1.09 ± 0.087. As for ACTGTGCGCC, the switch fluorescence ratio came to 1.01 ± 0.029. As for GCAGGGTGCG, the switch fluorescence ratio came to 1 ± 0.032. Regarding ATTATCTGTG, the switch fluorescence ratio is 0.97 ± 0.039. Turning to GATTGAGGAG, the switch fluorescence ratio amounted to 0.981 ± 0.03. Then TGAGGACAGG, with 1.06 ± 0.054. Consider TGAATAGTGT, for which the switch fluorescence ratio stood at 0.996 ± 0.044. Take ATGTGTGGTT: the switch fluorescence ratio worked out at 1.12 ± 0.15.

On to TTTTAAAAAT, for which the switch fluorescence ratio was 1.03 ± 0.056. In the case of CTGGGGGGAT, the switch fluorescence ratio amounted to 0.987 ± 0.021. With AATGGTGTAA, the switch fluorescence ratio was 0.99259 ± 0.00066.

Take TCATAGGGGC: the switch fluorescence ratio came to 1.04 ± 0.012. Then GCGTAATGGT, with 1.095 ± 0.0043; and TAAGTCCTTT, with 0.9828 ± 0.0041; and TCTGGCAATG, with 1.46 ± 0.061. Consider TAGGTTTCAT, for which the switch fluorescence ratio stood at 1.01 ± 0.014. In the case of CTTGGGGGAT, the switch fluorescence ratio is 0.979 ± 0.038.

Turning to AAGCCGATTC, the switch fluorescence ratio worked out at 1.03 ± 0.0068. As to TTAAAGTTAT, the switch fluorescence ratio came out at 0.986 ± 0.061.

As for TGTGGTGTGT, the switch fluorescence ratio was determined as 1 ± 0.03. Take TTGAAGGTCA: the switch fluorescence ratio was determined as 1.02 ± 0.015. Take TTATCTAGCT: the switch fluorescence ratio came out at 1.03 ± 0.023. On to ACATGTGACG, for which the switch fluorescence ratio was determined as 0.98236 ± 0.00039. As to AAAGGTGGGC, the switch fluorescence ratio is 0.98 ± 0.039. As for AAGGGGCGGA, the switch fluorescence ratio turned out to be 0.97 ± 0.016. On to CAAAAGGGGG, for which the switch fluorescence ratio worked out at 0.9818 ± 0.005. Next, TTACCGGGGT: 0.995 ± 0.035; AATGTGCATA: 0.988 ± 0.011; AAGAAATTGG: 0.9446 ± 0.0027.

Take AGTAGTATAT: the switch fluorescence ratio is 0.994 ± 0.03. With AATGGGTCTG, the switch fluorescence ratio stood at 0.978 ± 0.052. For the sequence CTGATGTGTC, the switch fluorescence ratio was 0.996 ± 0.055. On to GTTGGGTACT, for which the switch fluorescence ratio is 0.998 ± 0.037. Regarding CATCTGTG, the switch fluorescence ratio turned out to be 1.03 ± 0.016. Then ACTTCCGTTC, with 1.35 ± 0.017; and CCTGAGAGAG, with 1.034 ± 0.0052. Turning to GATTATATGG, the switch fluorescence ratio came to 1 ± 0.039. For the sequence GTTTTTACTA, the switch fluorescence ratio turned out to be 0.998 ± 0.014. Then TACAGTTACC, with 1.31 ± 0.11; and CGATGGAGTG, with 0.983 ± 0.027; and AGTGGCATGT, with 0.986 ± 0.012. GGTGGGTTGC: the switch fluorescence ratio was 0.9858 ± 0.0086. Next, TTTAATTGCG: 0.993 ± 0.012; TTAGCGGT: 1.004 ± 0.0093; TTTCGGAGGA: 0.991 ± 0.018.

In the case of TCGAGGGGTG, the switch fluorescence ratio came to 1.01 ± 0.039. Consider CTCTGGGCTT, for which the switch fluorescence ratio stood at 0.99826 ± 8.3e-05. On to CGGCTTATAT, for which the switch fluorescence ratio was 1.06 ± 0.041. Then AGGAGCGCGT, with 1.02 ± 0.051; and ATGACGGTGG, with 0.94 ± 0.014. As for CGGGGGCGCA, the switch fluorescence ratio turned out to be 0.9414 ± 0.007. As for GGCCTGGCTA, the switch fluorescence ratio is 0.974 ± 0.02. As to ACCTAGTGGG, the switch fluorescence ratio came out at 1.005 ± 0.0087. As for TGAGTCTCTG, the switch fluorescence ratio came to 0.998 ± 0.012. On to TTTCGCTTTT, for which the switch fluorescence ratio worked out at 1.03 ± 0.044. Turning to TATACGTTTC, the switch fluorescence ratio worked out at 1.04 ± 0.028. GCCGCCACCT: the switch fluorescence ratio was found to be 1.07 ± 0.019. With TGCAAAATTG, the switch fluorescence ratio was 0.995 ± 0.024.

For the sequence TTTTCATGGC, the switch fluorescence ratio turned out to be 1.06 ± 0.018. On to AGGGGAAGTC, for which the switch fluorescence ratio was determined as 0.953 ± 0.015. Take CCGCGAGGGT: the switch fluorescence ratio is 1.57 ± 0.29. For GCTTAAGGGG, the switch fluorescence ratio was determined as 0.989 ± 0.029.

As for GGACTGCTGG, the switch fluorescence ratio came to 1.03 ± 0.033. As for ATCGGAATCC, the switch fluorescence ratio came out at 1.19 ± 0.094. For the sequence GTTACTTGAG, the switch fluorescence ratio worked out at 0.9985 ± 0.005. Regarding GGGATTGGAG, the switch fluorescence ratio came out at 0.995 ± 0.016. On to TACCGGGGGC, for which the switch fluorescence ratio stood at 1.14 ± 0.09. Consider GCTATCAGCG, for which the switch fluorescence ratio amounted to 0.995 ± 0.023. Then GGTATAGTAG, with 0.99304 ± 0.00031; and TTGAGACAGG, with 1.0131 ± 0.00096; and AGGATGTTTT, with 0.995 ± 0.039.

ATGGGTTATG: the switch fluorescence ratio is 0.999 ± 0.016. Regarding GCAGGGATGC, the switch fluorescence ratio came out at 1 ± 0.057. Take TAAAGTTTTG: the switch fluorescence ratio amounted to 0.995 ± 0.017.

As for CAGGGGATTG, the switch fluorescence ratio came out at 1.11 ± 0.14. Next, GGCTGAGGCA: 1.01 ± 0.029; AAAAGCAGGA: 1.05 ± 0.052; GTGTTTTCAG: 0.988 ± 0.03.

As to CACAGTAAAC, the switch fluorescence ratio is 1.25 ± 0.11. Then TTTGCGCTCG, with 0.968 ± 0.037; and AAAGTGCATC, with 0.992 ± 0.0037. Take GGGTTCAATC: the switch fluorescence ratio turned out to be 1.04 ± 0.014. Take TCGAAAATCG: the switch fluorescence ratio came to 1 ± 0.049. As to TATAGTGATG, the switch fluorescence ratio is 1.01 ± 0.019.

As to GGTTGCAGCC, the switch fluorescence ratio was 1.02 ± 0.026. Then GGAGGGGTCA, with 0.9744 ± 0.0097. Turning to GCGAGGAATA, the switch fluorescence ratio worked out at 1.2 ± 0.079. Consider AGGATTGTTG, for which the switch fluorescence ratio came out at 0.994 ± 0.07. Then CACATCACTT, with 1.43 ± 0.27; and CCATTTTTGG, with 0.992 ± 0.011. With GGATCCTGTT, the switch fluorescence ratio is 1.01 ± 0.027.

On to AGTGGGGCAG, for which the switch fluorescence ratio amounted to 0.986 ± 0.0071. Consider TTTTTGTAGT, for which the switch fluorescence ratio came to 1.01 ± 0.032. Then GAGGGGGGCT, with 1.023 ± 0.006. For TTATATCGTT, the switch fluorescence ratio amounted to 0.998 ± 0.017. GACGAGCCAG: the switch fluorescence ratio amounted to 1.002 ± 0.0066. Then TCGTACGTTG, with 1.01 ± 0.022; and CTCGGCTGCG, with 0.969 ± 0.084; and TGTACGATGC, with 1.12 ± 0.014. For the sequence TAACCTGCCC, the switch fluorescence ratio was 2.26 ± 0.12. Turning to CTGCGGGATT, the switch fluorescence ratio came out at 1.02 ± 0.026.

For the sequence CATAGGGGCC, the switch fluorescence ratio was found to be 0.9643 ± 0.0074. On to GGGATTAGGA, for which the switch fluorescence ratio was 0.995 ± 0.052. For the sequence GAGAGGGGGC, the switch fluorescence ratio stood at 0.931 ± 0.018. Next, GTTGCACTGG: 1.01 ± 0.011. As to TTTTAGTAGG, the switch fluorescence ratio came to 1.04 ± 0.091. As for TCAAATGTGC, the switch fluorescence ratio was 1.02 ± 0.033. Regarding AATTTAGCCG, the switch fluorescence ratio came out at 0.977 ± 0.077. Next, CTATTTCATA: 0.992 ± 0.018; TTTATTAATC: 0.99544 ± 0.00085; CCACGGGATG: 1.09 ± 0.03. TTGTGTGACT: the switch fluorescence ratio was found to be 0.991 ± 0.04. GTGTTTTGAA: the switch fluorescence ratio was 1.01 ± 0.022.

In the case of ATAGGGCGGC, the switch fluorescence ratio was 1.012 ± 0.0038. With GTGTAACGTT, the switch fluorescence ratio stood at 1 ± 0.042.

With TGATACGGAG, the switch fluorescence ratio was found to be 0.983 ± 0.06. ACGTGTGTGG: the switch fluorescence ratio amounted to 0.989 ± 0.017.
